Reference: article PMC12207370, “Macrocyclic Peptide Probes for Immunomodulatory Protein CD59: Potent Modulators of Bacterial Toxin Activity and Antibody‐Dependent Cytotoxicity” (Angewandte Chemie (International Ed. in English), 2025)

Biological target: T1, biotinylated CD59 (Homo sapiens, UniProt P13987)
T1 construct: Recombinant soluble human CD59 with an additional C-terminal cysteine residue
T1 sequence (P13987 26-102 limits assumed): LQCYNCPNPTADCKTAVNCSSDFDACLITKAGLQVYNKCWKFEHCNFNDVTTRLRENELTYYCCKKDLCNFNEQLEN
Test: mRNA-display cyclic peptide screen against CD59-biotin, NGS abundance after 6th selection round
Details: for Percentage Seq I: counts normalised by total counts of sample Seq I; for Percentage Seq I / Percentage Seq II: percentage of the pool; for Percentage Seq I / Percentage Seq II / Percentage Average / Percentage of the pool, averaged across the two sequencing samples / Percentage of the pool, Seq I / Percentage of the pool, Seq II: sheet R6; for Percentage Seq II: counts normalised by total counts of sample Seq II; for Percentage Average: percentage of the pool averaged across the two sequencing samples; for Counts Seq I / Counts Seq II: raw NGS counts of peptide sequence; for Counts Seq I: sequencing sample Seq I; for Counts Seq I / Counts Seq II / Counts (raw counts for peptide sequence), Seq I / Counts (raw counts for peptide sequence), Seq II: sheet R6 (6th selection round); for Counts Seq II: sequencing sample Seq II; for Counts (raw counts for peptide sequence), Seq I: NGS sample Seq I; for Counts (raw counts for peptide sequence), Seq II: NGS sample Seq II; for Percentage of the pool, averaged across the two sequencing samples: average of Seq I and Seq II; for Percentage of the pool, Seq I: counts normalised by total counts of NGS sample Seq I; for Percentage of the pool, Seq II: counts normalised by total counts of NGS sample Seq II
In short: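 Peptide–mRNA fusions were made by in vitro translation with a customised PURE express kit. The kit lacked release factor 1 and methionine and was supplemented with […] initiator tRNA carrying N-chloroacetyl-d-tyrosine. Thioether macrocycles were formed, then enriched and amplified over iterative rounds on CD59-biotin immobilised on streptavidin beads. NGS read counts per sequence were recorded after the 6th selection round.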

Row | Sequence | Percentage Seq I | Percentage Seq II | Percentage Average | Counts Seq I | Counts Seq II | Counts (raw counts for peptide sequence), Seq I | Counts (raw counts for peptide sequence), Seq II | Percentage of the pool, averaged across the two sequencing samples | Percentage of the pool, Seq I | Percentage of the pool, Seq II
1 | TISGGRDYTRG | 0.948% | 0.935% | 0.941% | 4146 | 403 | – | – | – | – | –
2 | QWNRWYGIDEL | 0.075% | 0.070% | 0.072% | 329 | 30 | – | – | – | – | –
3 | CFALRLSQTSV | 0.018% | 0.042% | 0.030% | 78 | 18 | – | – | – | – | –
4 | HCWVRGSRSYT | 0.022% | 0.021% | 0.022% | 97 | 9 | – | – | – | – | –
5 | STRRDRLGLIC | 1.051% | 1.033% | 1.042% | 4600 | 445 | – | – | – | – | –
6 | CFAARLSNGDS | 0.319% | 0.362% | 0.341% | 1397 | 156 | – | – | – | – | –
7 | DPICTRYNDPR | – | – | – | – | – | 46 | 5 | 0.011% | 0.011% | 0.012%
8 | SAWGNRQIQHY | – | – | – | – | – | 74 | 3 | 0.012% | 0.017% | 0.007%
9 | CFSRRLTAGAI | 2.075% | 2.091% | 2.083% | 9078 | 901 | – | – | – | – | –
10 | CFSARTDSSGT | 0.053% | 0.039% | 0.046% | 231 | 17 | – | – | – | – | –
11 | STYNDFFRVPC | 0.149% | 0.200% | 0.174% | 650 | 86 | – | – | – | – | –
12 | WILGSRWWTQS | 0.921% | 0.903% | 0.912% | 4031 | 389 | – | – | – | – | –
13 | FVRGDLYPVLG | – | – | – | – | – | 65 | 5 | 0.013% | 0.015% | 0.012%
14 | FVTGNRDHTRV | – | – | – | – | – | 35 | 5 | 0.010% | 0.008% | 0.012%
15 | AISGGRDYTRG | – | – | – | – | – | 43 | 6 | 0.012% | 0.010% | 0.014%
16 | CFSSRVQSGDT | 0.214% | 0.190% | 0.202% | 936 | 82 | – | – | – | – | –
17 | WILGSRWWTQT | 0.032% | 0.030% | 0.031% | 139 | 13 | – | – | – | – | –
18 | LNPQGHCLLKL | – | – | – | – | – | 55 | 8 | 0.016% | 0.013% | 0.019%
19 | LWGAANYLKVIY | 0.046% | 0.023% | 0.035% | 201 | 10 | – | – | – | – | –
20 | CYGGRTFIYACS | 0.019% | 0.021% | 0.020% | 83 | 9 | – | – | – | – | –
21 | SSWAQLPCRS | 0.041% | 0.051% | 0.046% | 180 | 22 | – | – | – | – | –
22 | CFIRRSIESGTA | – | – | – | – | – | 56 | 10 | 0.018% | 0.013% | 0.023%
23 | SAWGNQQIQYY | 0.028% | 0.026% | 0.027% | 124 | 11 | – | – | – | – | –
24 | FVFGNRHFRTE | 0.408% | 0.492% | 0.450% | 1785 | 212 | – | – | – | – | –
25 | CFARRLSASLGT | 0.033% | 0.021% | 0.027% | 145 | 9 | – | – | – | – | –
26 | WRDRFDQCAL | – | – | – | – | – | 67 | 6 | 0.015% | 0.015% | 0.014%
27 | YVFGNRSFTRG | 0.504% | 0.524% | 0.514% | 2205 | 226 | – | – | – | – | –
